# In US20120023600A1 (Novartis, published 2012):
# T1: recombinant human DKK1 (human, UniProt O94907 32-266)
# T1 sequence: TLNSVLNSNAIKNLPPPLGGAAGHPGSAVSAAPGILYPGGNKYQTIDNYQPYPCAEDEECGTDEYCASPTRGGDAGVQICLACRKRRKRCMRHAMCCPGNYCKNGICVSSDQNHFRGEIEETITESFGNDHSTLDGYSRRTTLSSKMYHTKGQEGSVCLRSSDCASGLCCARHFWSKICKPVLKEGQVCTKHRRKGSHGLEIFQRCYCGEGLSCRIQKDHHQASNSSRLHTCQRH
# T2: cynomolgus DKK1 (cynomolgus monkey (Macaca fascicularis), UniProt A0A7N9IE82 32-266)
# T2 construct: also called cyno DKK1; monkey DKK1 (Novartis)
# T2 sequence: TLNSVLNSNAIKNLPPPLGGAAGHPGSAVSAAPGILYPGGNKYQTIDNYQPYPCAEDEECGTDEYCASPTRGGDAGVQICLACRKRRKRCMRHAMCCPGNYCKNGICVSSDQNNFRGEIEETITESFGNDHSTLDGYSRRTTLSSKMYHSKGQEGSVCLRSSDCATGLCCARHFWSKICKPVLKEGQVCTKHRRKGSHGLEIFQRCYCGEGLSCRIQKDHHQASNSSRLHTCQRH
# T3: mouse DKK1 (R&D Systems) (mouse, UniProt O54908 32-272)
# T3 construct: Bought protein
# T3 sequence (looked up): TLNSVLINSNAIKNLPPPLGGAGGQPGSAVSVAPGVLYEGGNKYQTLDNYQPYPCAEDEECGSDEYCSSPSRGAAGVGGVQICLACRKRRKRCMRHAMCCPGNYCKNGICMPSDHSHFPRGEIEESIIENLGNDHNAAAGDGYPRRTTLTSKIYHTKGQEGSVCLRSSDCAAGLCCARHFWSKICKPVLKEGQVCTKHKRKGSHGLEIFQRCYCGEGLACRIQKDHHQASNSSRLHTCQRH
# T4: biotinylated human DKK1 (human, UniProt O94907 32-266, biotinylated (sites not given))
# T4 construct: also called biotinylated DKK1; human recombinant, biotinylated DKK1
# T4 sequence: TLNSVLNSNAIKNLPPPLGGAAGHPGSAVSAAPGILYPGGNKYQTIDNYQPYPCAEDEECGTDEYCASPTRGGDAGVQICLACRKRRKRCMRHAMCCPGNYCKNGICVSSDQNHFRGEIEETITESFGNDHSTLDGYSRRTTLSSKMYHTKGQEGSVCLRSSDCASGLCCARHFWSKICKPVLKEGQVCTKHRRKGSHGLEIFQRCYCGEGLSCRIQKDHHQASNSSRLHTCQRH
# T5: DKK1-APP (human, UniProt O94907 32-266)
# T5 sequence: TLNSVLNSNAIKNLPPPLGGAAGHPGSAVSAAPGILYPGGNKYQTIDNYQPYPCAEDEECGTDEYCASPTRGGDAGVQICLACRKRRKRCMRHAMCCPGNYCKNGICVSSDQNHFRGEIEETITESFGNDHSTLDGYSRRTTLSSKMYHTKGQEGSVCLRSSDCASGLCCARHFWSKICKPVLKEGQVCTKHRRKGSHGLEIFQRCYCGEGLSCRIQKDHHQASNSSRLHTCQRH
# What was measured:
# recombinant human DKK1 [1] = target: T1, recombinant human DKK1; assay: cell-based or functional assay
# cynomolgus DKK1 [2] = target: T2, cynomolgus DKK1; assay: solution equilibrium titration (SET), ECL (BioVeris), Fab
# Description: (§1) Electrochemiluminescence (ECL) based affinity determination in solution and data evaluation are basically performed as described by Haenel et al., 2005. […] Subsequently, the concentration of unbound Fab is quantified by ECL detection using the M-SERIES® 384 analyzer (BioVeris Europe).
# (§2) Affinities are calculated according to Haenel et al., 2005 Anal Biochem 339.1:182-184.
# recombinant human DKK1 [3] = target: T1, recombinant human DKK1; assay: as above
# Description: as §1, §2
# mouse DKK1 (R&D Systems) [4] = target: T3, mouse DKK1 (R&D Systems); assay: as above
# Description: as §1, §2
# biotinylated human DKK1 = target: T4, biotinylated human DKK1; assay: ELISA, biotinylated DKK1 on Neutravidin plates, Fab 1 ug/ml, anti-FLAG-AP detection
# Description: Binding specificity of the matured Fabs in the presence of 50% human serum (HS) is determined. […] After coating of the antigen, wells are blocked with TBS/0.05% Tween (TBS-T) supplemented with 1% BSA for 1 h at room temperature. Purified Fabs described above are diluted either in TBS/4% BSA or TBS/50% HS at a final concentration of 1 μg/ml, added to the coated and blocked wells and the plates are incubated for 1 h at room temperature. For detection, an anti-FLAG alkaline phosphatase (AP)-conjugated antibody (1:5000 dilution in TBST) and the fluorogenic substrate AttoPhos (Roche) are used. After each incubation, the wells of the microtiter plates are washed with TBST five times, except after the final incubation step with the labeled secondary antibody when wells are washed three times.
# The fluorescence is measured in a TECAN Spectrafluor plate reader.
# DKK1-APP [5] = target: T5, DKK1-APP; assay: cell-based or functional assay
# DKK1-APP [6] = target: T5, DKK1-APP; assay: cell-based or functional assay; remark: listed apart in the source
# cynomolgus DKK1 [7] = target: T2, cynomolgus DKK1; assay: SPR (Biacore), DKK1 immobilised on CM5 chip, Fab as analyte
# Description: (§3) Using these clones, kinetic SPR analysis is performed on a. […] The Fab preparations are applied in concentration series of 16-500 nM at a flow rate of 20 μl/min. Association phase is set to 60 s and dissociation phase to 120 s.
# recombinant human DKK1 [8] = target: T1, recombinant human DKK1; assay: as above
# Description: as §3
# mouse DKK1 (R&D Systems) [9] = target: T3, mouse DKK1 (R&D Systems); assay: as above
# Description: as §3
# cynomolgus DKK1 [10] = target: T2, cynomolgus DKK1; assay: as above; remark: listed apart in the source
# Description: as §3
# recombinant human DKK1 [11] = target: T1, recombinant human DKK1; assay: as above; remark: listed apart in the source
# Description: as §3
# mouse DKK1 (R&D Systems) [12] = target: T3, mouse DKK1 (R&D Systems); assay: as above; remark: listed apart in the source
# Description: as §3
# cynomolgus DKK1 [13] = target: T2, cynomolgus DKK1; assay: as above; remark: listed apart in the source
# Description: as §3
# recombinant human DKK1 [14] = target: T1, recombinant human DKK1; assay: as above; remark: listed apart in the source
# Description: as §3
# mouse DKK1 (R&D Systems) [15] = target: T3, mouse DKK1 (R&D Systems); assay: as above; remark: listed apart in the source
# Description: as §3
# DKK1-APP [16] = target: T5, DKK1-APP; assay: cell-based or functional assay; remark: listed apart in the source
TCF/LEF luc assay w/Kremen: EC50 (recombinant human DKK1 [1]) [pM],Kd (cynomolgus DKK1 [2]) [pM],Kd (recombinant human DKK1 [3]) [pM],Kd (mouse DKK1 (R&D Systems) [4]) [pM],Binding activity w/50% Human serum vs 4% BSA (%) (biotinylated human DKK1),Luciferase reporter assay w/o Kremen; Activity in 15% Human serum (%) (DKK1-APP [5]),EC50 (DKK1-APP [6]) [pM],Kd (cynomolgus DKK1 [7]) [pM],Kd (recombinant human DKK1 [8]) [pM],Kd (mouse DKK1 (R&D Systems) [9]) [pM],Kd (cynomolgus DKK1 [10]) [pM],Kd (recombinant human DKK1 [11]) [pM],Kd (mouse DKK1 (R&D Systems) [12]) [pM],Kd (cynomolgus DKK1 [13]) [pM],Kd (recombinant human DKK1 [14]) [pM],Kd (mouse DKK1 (R&D Systems) [15]) [pM],Luciferase reporter assay; EC50 (DKK1-APP [16]) [pM],Binder
1700,58,32,30,–,–,–,–,–,–,–,–,–,–,–,–,–,"MOR04947 (Fab, V domains shown) VH: QVQLVQSGAEVKKPGESLKISCKGSGYSFTNYYIGWVRQMPGKGLEWMGIIVPGTSYTIYSPSFQGQVTISADKSISTAYLQWSSLKASDTAMYYCARGIPFRMRGFDYWGQGTLVTVSS VL: DIVLTQPPSVSGAPGQRVTISCSGSSSNIGSSFVNWYQQLPGTAPKLLIGNNSNRPSGVPDRFSGSKSGTSASLAITGLQSEDEADYYCASFDMGSPNVVFGGGTKLTVLG"
1800,50,53,40,90,75,–,–,–,–,–,–,–,–,–,–,–,"MOR04920 (Fab, V domains shown) VH: QVQLVESGGGLVQPGGSLRLSCAASGFTFSSYWMSWVRQAPGKGLEWVSSIEHKDAGYTTWYAAGVKGRFTISRDNSKNTLYLQMNSLRAEDTAVYYCARHGIDFDHWGQGTLVTVSS VL: DIALTQPASVSGSPGQSITISCTGTSSDLGGYNYVSWYQQHPGKAPKLMIYDVNNRPSGVSNRFSGSKSGNTASLTISGLQAEDEADYYCQSYASGNTKVVFGGGTKLTVLG"
500,80,69,74,89,74,–,–,–,–,–,–,–,–,–,–,–,"MOR04945 (Fab, V domains shown) VH: QVQLVESGGGLVQPGGSLRLSCAASGFTFSSYWMSWVRQAPGKGLEWVSVISSDSSSTYYADSVKGRFTISRDNSKNTLYLQMNSLRAEDTAVYYCARHGIDFDHWGQGTLVTVSS VL: DIALTQPASVSGSPGQSITISCTGTSSDLGGYNYVSWYQQHPGKAPKLMIYDVNNRPSGVSNRFSGSKSGNTASLTISGLQAEDEADYYCQTYDQIKLSAVFGGGTKLTVLG"
500,67,57,65,100,70,–,–,–,–,–,–,–,–,–,–,–,"MOR04948 (Fab, V domains shown) VH: QVQLVESGGGLVQPGGSLRLSCAASGFTFSSYWMSWVRQAPGKGLEWVSGISYSGSNTHYADSVKGRFTISRDNSKNTLYLQMNSLRAEDTAVYYCARMGIDLDYWGQGTLVTVSS VL: DIALTQPASVSGSPGQSITISCTGTSSDVGGFNYVSWYQQHPGKAPKLMIHDGSNRPSGVSNRFSGSKSGNTASLTISGLQAEDEADYYCQTWDSLSFFVFGGGTKLTVLG"

# The next lines start with the binder.
Binder,TCF/LEF luc assay w/Kremen: EC50 (recombinant human DKK1 [1]) [pM],Kd (cynomolgus DKK1 [2]) [pM],Kd (recombinant human DKK1 [3]) [pM],Kd (mouse DKK1 (R&D Systems) [4]) [pM],Binding activity w/50% Human serum vs 4% BSA (%) (biotinylated human DKK1),Luciferase reporter assay w/o Kremen; Activity in 15% Human serum (%) (DKK1-APP [5]),EC50 (DKK1-APP [6]) [pM],Kd (cynomolgus DKK1 [7]) [pM],Kd (recombinant human DKK1 [8]) [pM],Kd (mouse DKK1 (R&D Systems) [9]) [pM],Kd (cynomolgus DKK1 [10]) [pM],Kd (recombinant human DKK1 [11]) [pM],Kd (mouse DKK1 (R&D Systems) [12]) [pM],Kd (cynomolgus DKK1 [13]) [pM],Kd (recombinant human DKK1 [14]) [pM],Kd (mouse DKK1 (R&D Systems) [15]) [pM],Luciferase reporter assay; EC50 (DKK1-APP [16]) [pM]
"MOR04946 (Fab, V domains shown) VH: QVQLVESGGGLVQPGGSLRLSCAASGFTFNNYGMTWVRQAPGKGLEWVSGISGSGSYTYYADSVKGRFTISRDNSKNTLYLQMNSLRAEDTAVYYCARTIYMDYWGQGTLVTVSS VL: DIVLTQSPATLSLSPGERATLSCRASQNLFSPYLAWYQQKPGQAPRLLIYGASNRATGVPARFSGSGSGTDFTLTISSLEPEDFAVYYCQQYLTLPLTFGQGTKVEIKR",200,36,25,41,93,60,–,–,–,–,–,–,–,–,–,–,–
"MOR04913 (Fab, V domains shown) VH: QVQLVESGGGLVQPGGSLRLSCAASGFTFNNYGMTWVRQAPGKGLEWVSGISGSGSYTYYADSVKGRFTISRDNSKNTLYLQMNSLRAEDTAVYYCARTIYMDYWGQGTLVTVSS VL: DIVLTQSPATLSLSPGERATLSCRASQNLFSPYLAWYQQKPGQAPRLLIYGASNRATGVPARFSGSGSGTDFTLTISSLEPEDFAVYYCQQYMTLPLTFGQGTKVEINR",500,51,38,44,89,88,–,–,–,–,–,–,–,–,–,–,–
"MOR04952 (Fab, V domains shown) VH: QVQLVESGGGLVQPGGSLRLSCAASGFTFSSYWMSWVRQAPGKGLEWVSVISSDSSSTYYADSVKGRFTISRDNSKNTLYLQMNSLRAEDTAVYYCARHGIDFDHWGQGTLVTVSS VL: DIALTQPASVSGSPGQSITISCTGTSSDLGGYNYVSWYQQHPGKAPKLMIYDVNNRPSGVSNRFSGSKSGNTASLTISGLQAEDEADYYCQSYDSPTDSVVFGGGTKLTVLG",600,58,100,71,100,60,–,–,–,–,–,–,–,–,–,–,–
"MOR04910 (Fab, V domains shown, also called anti-DKK1 FAb MOR04910) VH: QVQLVESGGGLVQPGGSLRLSCAASGFTFSSYWMSWVRQAPGKGLEWVSGISYSGSNTHYADSVKGRFTISRDNSKNTLYLQMNSLRAEDTAVYYCARMGIDLDYWGQGTLVTVSS VL: DIALTQPASVSGSPGQSITISCTGTSSDVGGFNYVSWYQQHPGKAPKLMIHDGSNRPSGVSNRFSGSKSGNTASLTISGLQAEDEADYYCQSWDVSPITAVFGGGTKLTVLG",300,37,24,42,84,90,–,–,–,–,–,–,–,–,–,–,–
"MOR04470 (Fab, V domains shown, Fab with C-terminal FLAG and 6xHis tags) VH: QVQLVESGGGLVQPGGSLRLSCAASGFTFSSYWMSWVRQAPGKGLEWVSVISSDSSSTYYADSVKGRFTISRDNSKNTLYLQMNSLRAEDTAVYYCARHGIDFDHWGQGTLVTVSS VL: DIALTQPASVSGSPGQSITISCTGTSSDLGGYNYVSWYQQHPGKAPKLMIYDVNNRPSGVSNRFSGSKSGNTASLTISGLQAEDEADYYCQSYASGNTKVVFGGGTKLTVLG",–,–,–,–,–,–,58000,1700,3200,3600,1700,3200,3600,1700,3200,3600,58000
